The values below come from US20170190753A1 (LABORATOIRE FRANCAIS DU FRACTIONNEMENT ET DES …, published 2017).

B1: pCEP4-1NT8-13CT20 (other)
chain: EDCNELPPRRNTEILTGSWSDQTYPEGTQAIYKCRPGYRSLGNVIMVCRKGEWVALNPLRKCQKRPCGHPGDTPFGTFTLTGGNVFEYGVKAVYTCNEGYQLLGEINYRECDTDGWTNDIPICEVVKCLPVTAPENGKIVSSAMEPDREYHFGQAVRFVCNSGYKIEGDEEMHCSDDGFWSKEKPKCVEISCKSPDVINGSPISQKIIYKENERFQYKCNMGYEYSERGDAVCTESGWRPLPSCEEKSCDNPYIPNGDYSPLRIKHRTGDEITYQCRNGFYPATRGNTAKCTSTGWIPAPRCTLKPCDYPDIKHGGLYHENMRRPYFPVAVGKYYSYYCDEHFETPSGSYWDHIHCTQDGWSPAVPCLRKCYFPYLENGYNQNHGRKFVQGKSIDVACHPGYALPKAQTTVTCMENGWSPTPRCIRVKTCSKSSIDIENGFISESQYTYALKEKAKYQCKLGYVTADGETSGSITCGKDGWSAQPTCIKSGASGCKSSNLIILEEHLKNKKEFDHNSNIRYRCRGKEGWIHTVCINGRWDPEVNCSMAQIQLCPPPPQIPNSHNMTTTLNYRDGEKVSVLCQENYLIQEGEEITCKDGRWQSIPLCVEKIPCSQPPQIEHGTINSSRSSQESYAHGTKLSYTCEGGFRISEENETTCYMGKWSSPPQCEGLPCKSPPEISHGVVAHMSDSYQYGEEVTYKCFEGFGIDGPAIAKCLGEKWSHPPSCIKTDCLSLPSFENAIPMGEKKDVYKAGEQVTYTCATYYKMDGASNVTCINSRWTGRPTCRDTSCVNPPTVQNAYIVSRQMSKYPSGERVRYQCRSPYEMFGDEEVMCLNGNWTEPPQCKDSTGKCGPPPPIDNGDITSFPLSVYAPASSVEYQCQNLYQLEGNKRITCRNGQWSEPPKCLHPCVISREIMENYNIALRWTAKQKLYSRTGESVEFVCKRGYRLSSRSHTLRTTCWDGKLEYPTCAKRGGSGHHHHHH
B2: pCEP4-1NT4-8CT20 (other)
chain: EDCNELPPRRNTEILTGSWSDQTYPEGTQAIYKCRPGYRSLGNVIMVCRKGEWVALNPLRKCQKRPCGHPGDTPFGTFTLTGGNVFEYGVKAVYTCNEGYQLLGEINYRECDTDGWTNDIPICEVVKCLPVTAPENGKIVSSAMEPDREYHFGQAVRFVCNSGYKIEGDEEMHCSDDGFWSKEKPKCVEISCKSPDVINGSPISQKIIYKENERFQYKCNMGYEYSERGDAVCTESGWRPLPSCEEKSGASGCSKSSIDIENGFISESQYTYALKEKAKYQCKLGYVTADGETSGSITCGKDGWSAQPTCIKSCDIPVFMNARTKNDFTWFKLNDTLDYECHDGYESNTGSTTGSIVCGYNGWSDLPICYERECELPKIDVHLVPDRKKDQYKVGEVLKFSCKPGFTIVGPNSVQCYHFGLSPDLPICKEQVQSCGPPPELLNGNVKEKTKEEYGHSEVVEYYCNPRFLMKGPNKIQCVDGEWTTLPVCIVEESTCGDIPELEHGWAQLSSPPYYYGDSVEFNCSESFTMIGHRSITCIHGVWTQLPQCVAIDKLKKCKSSNLIILEEHLKNKKEFDHNSNIRYRCRGKEGWIHTVCINGRWDPEVNCSMAQIQLCPPPPQIPNSHNMTTTLNYRDGEKVSVLCQENYLIQEGEEITCKDGRWQSIPLCVEKIPCSQPPQIEHGTINSSRSSQESYAHGTKLSYTCEGGFRISEENETTCYMGKWSSPPQCEGLPCKSPPEISHGVVAHMSDSYQYGEEVTYKCFEGFGIDGPAIAKCLGEKWSHPPSCIKTDCLSLPSFENAIPMGEKKDVYKAGEQVTYTCATYYKMDGASNVTCINSRWTGRPTCRDTSCVNPPTVQNAYIVSRQMSKYPSGERVRYQCRSPYEMFGDEEVMCLNGNWTEPPQCKDSTGKCGPPPPIDNGDITSFPLSVYAPASSVEYQCQNLYQLEGNKRITCRNGQWSEPPKCLHPCVISREIMENYNIALRWTAKQKLYSRTGESVEFVCKRGYRLSSRSHTLRTTCWDGKLEYPTCAKRGGSGHHHHHH
B3: pCEP4-1NT4-10CT20 (other)
chain: EDCNELPPRRNTEILTGSWSDQTYPEGTQAIYKCRPGYRSLGNVIMVCRKGEWVALNPLRKCQKRPCGHPGDTPFGTFTLTGGNVFEYGVKAVYTCNEGYQLLGEINYRECDTDGWTNDIPICEVVKCLPVTAPENGKIVSSAMEPDREYHFGQAVRFVCNSGYKIEGDEEMHCSDDGFWSKEKPKCVEISCKSPDVINGSPISQKIIYKENERFQYKCNMGYEYSERGDAVCTESGWRPLPSCEEKSGASGCELPKIDVHLVPDRKKDQYKVGEVLKFSCKPGFTIVGPNSVQCYHFGLSPDLPICKEQVQSCGPPPELLNGNVKEKTKEEYGHSEVVEYYCNPRFLMKGPNKIQCVDGEWTTLPVCIVEESTCGDIPELEHGWAQLSSPPYYYGDSVEFNCSESFTMIGHRSITCIHGVWTQLPQCVAIDKLKKCKSSNLIILEEHLKNKKEFDHNSNIRYRCRGKEGWIHTVCINGRWDPEVNCSMAQIQLCPPPPQIPNSHNMTTTLNYRDGEKVSVLCQENYLIQEGEEITCKDGRWQSIPLCVEKIPCSQPPQIEHGTINSSRSSQESYAHGTKLSYTCEGGFRISEENETTCYMGKWSSPPQCEGLPCKSPPEISHGVVAHMSDSYQYGEEVTYKCFEGFGIDGPAIAKCLGEKWSHPPSCIKTDCLSLPSFENAIPMGEKKDVYKAGEQVTYTCATYYKMDGASNVTCINSRWTGRPTCRDTSCVNPPTVQNAYIVSRQMSKYPSGERVRYQCRSPYEMFGDEEVMCLNGNWTEPPQCKDSTGKCGPPPPIDNGDITSFPLSVYAPASSVEYQCQNLYQLEGNKRITCRNGQWSEPPKCLHPCVISREIMENYNIALRWTAKQKLYSRTGESVEFVCKRGYRLSSRSHTLRTTCWDGKLEYPTCAKRGGSGHHHHHH
B4: pCEP4-1NT13-14CT20 (other)
chain: EDCNELPPRRNTEILTGSWSDQTYPEGTQAIYKCRPGYRSLGNVIMVCRKGEWVALNPLRKCQKRPCGHPGDTPFGTFTLTGGNVFEYGVKAVYTCNEGYQLLGEINYRECDTDGWTNDIPICEVVKCLPVTAPENGKIVSSAMEPDREYHFGQAVRFVCNSGYKIEGDEEMHCSDDGFWSKEKPKCVEISCKSPDVINGSPISQKIIYKENERFQYKCNMGYEYSERGDAVCTESGWRPLPSCEEKSCDNPYIPNGDYSPLRIKHRTGDEITYQCRNGFYPATRGNTAKCTSTGWIPAPRCTLKPCDYPDIKHGGLYHENMRRPYFPVAVGKYYSYYCDEHFETPSGSYWDHIHCTQDGWSPAVPCLRKCYFPYLENGYNQNHGRKFVQGKSIDVACHPGYALPKAQTTVTCMENGWSPTPRCIRVKTCSKSSIDIENGFISESQYTYALKEKAKYQCKLGYVTADGETSGSITCGKDGWSAQPTCIKSCDIPVFMNARTKNDFTWFKLNDTLDYECHDGYESNTGSTTGSIVCGYNGWSDLPICYERECELPKIDVHLVPDRKKDQYKVGEVLKFSCKPGFTIVGPNSVQCYHFGLSPDLPICKEQVQSCGPPPELLNGNVKEKTKEEYGHSEVVEYYCNPRFLMKGPNKIQCVDGEWTTLPVCIVEESTCGDIPELEHGWAQLSSPPYYYGDSVEFNCSESFTMIGHRSITCIHGVWTQLPQCVAIDKLKKCKSSNLIILEEHLKNKKEFDHNSNIRYRCRGKEGWIHTVCINGRWDPEVNCSMAQIQLGASGCPPPPQIPNSHNMTTTLNYRDGEKVSVLCQENYLIQEGEEITCKDGRWQSIPLCVEKIPCSQPPQIEHGTINSSRSSQESYAHGTKLSYTCEGGFRISEENETTCYMGKWSSPPQCEGLPCKSPPEISHGVVAHMSDSYQYGEEVTYKCFEGFGIDGPAIAKCLGEKWSHPPSCIKTDCLSLPSFENAIPMGEKKDVYKAGEQVTYTCATYYKMDGASNVTCINSRWTGRPTCRDTSCVNPPTVQNAYIVSRQMSKYPSGERVRYQCRSPYEMFGDEEVMCLNGNWTEPPQCKDSTGKCGPPPPIDNGDITSFPLSVYAPASSVEYQCQNLYQLEGNKRITCRNGQWSEPPKCLHPCVISREIMENYNIALRWTAKQKLYSRTGESVEFVCKRGYRLSSRSHTLRTTCWDGKLEYPTCAKRGGSGHHHHHH
B5: pCEP4-1NT9-12CT20 (other)
chain: EDCNELPPRRNTEILTGSWSDQTYPEGTQAIYKCRPGYRSLGNVIMVCRKGEWVALNPLRKCQKRPCGHPGDTPFGTFTLTGGNVFEYGVKAVYTCNEGYQLLGEINYRECDTDGWTNDIPICEVVKCLPVTAPENGKIVSSAMEPDREYHFGQAVRFVCNSGYKIEGDEEMHCSDDGFWSKEKPKCVEISCKSPDVINGSPISQKIIYKENERFQYKCNMGYEYSERGDAVCTESGWRPLPSCEEKSCDNPYIPNGDYSPLRIKHRTGDEITYQCRNGFYPATRGNTAKCTSTGWIPAPRCTLKPCDYPDIKHGGLYHENMRRPYFPVAVGKYYSYYCDEHFETPSGSYWDHIHCTQDGWSPAVPCLRKCYFPYLENGYNQNHGRKFVQGKSIDVACHPGYALPKAQTTVTCMENGWSPTPRCIRVKTCSKSSIDIENGFISESQYTYALKEKAKYQCKLGYVTADGETSGSITCGKDGWSAQPTCIKSCDIPVFMNARTKNDFTWFKLNDTLDYECHDGYESNTGSTTGSIVCGYNGWSDLPICYEREGASGCGDIPELEHGWAQLSSPPYYYGDSVEFNCSESFTMIGHRSITCIHGVWTQLPQCVAIDKLKKCKSSNLIILEEHLKNKKEFDHNSNIRYRCRGKEGWIHTVCINGRWDPEVNCSMAQIQLCPPPPQIPNSHNMTTTLNYRDGEKVSVLCQENYLIQEGEEITCKDGRWQSIPLCVEKIPCSQPPQIEHGTINSSRSSQESYAHGTKLSYTCEGGFRISEENETTCYMGKWSSPPQCEGLPCKSPPEISHGVVAHMSDSYQYGEEVTYKCFEGFGIDGPAIAKCLGEKWSHPPSCIKTDCLSLPSFENAIPMGEKKDVYKAGEQVTYTCATYYKMDGASNVTCINSRWTGRPTCRDTSCVNPPTVQNAYIVSRQMSKYPSGERVRYQCRSPYEMFGDEEVMCLNGNWTEPPQCKDSTGKCGPPPPIDNGDITSFPLSVYAPASSVEYQCQNLYQLEGNKRITCRNGQWSEPPKCLHPCVISREIMENYNIALRWTAKQKLYSRTGESVEFVCKRGYRLSSRSHTLRTTCWDGKLEYPTCAKRGGSGHHHHHH
For C3 convertase activity % of the control in this document: test concentration or dose not given here.

For the assay, the target named is C3 convertase complex (UniProt P01024 23-1663; P00751 260-764). Kind of assay: cell-based or functional assay.
Chain of C3 convertase complex (P01024 23-1663, chain 1 of 2): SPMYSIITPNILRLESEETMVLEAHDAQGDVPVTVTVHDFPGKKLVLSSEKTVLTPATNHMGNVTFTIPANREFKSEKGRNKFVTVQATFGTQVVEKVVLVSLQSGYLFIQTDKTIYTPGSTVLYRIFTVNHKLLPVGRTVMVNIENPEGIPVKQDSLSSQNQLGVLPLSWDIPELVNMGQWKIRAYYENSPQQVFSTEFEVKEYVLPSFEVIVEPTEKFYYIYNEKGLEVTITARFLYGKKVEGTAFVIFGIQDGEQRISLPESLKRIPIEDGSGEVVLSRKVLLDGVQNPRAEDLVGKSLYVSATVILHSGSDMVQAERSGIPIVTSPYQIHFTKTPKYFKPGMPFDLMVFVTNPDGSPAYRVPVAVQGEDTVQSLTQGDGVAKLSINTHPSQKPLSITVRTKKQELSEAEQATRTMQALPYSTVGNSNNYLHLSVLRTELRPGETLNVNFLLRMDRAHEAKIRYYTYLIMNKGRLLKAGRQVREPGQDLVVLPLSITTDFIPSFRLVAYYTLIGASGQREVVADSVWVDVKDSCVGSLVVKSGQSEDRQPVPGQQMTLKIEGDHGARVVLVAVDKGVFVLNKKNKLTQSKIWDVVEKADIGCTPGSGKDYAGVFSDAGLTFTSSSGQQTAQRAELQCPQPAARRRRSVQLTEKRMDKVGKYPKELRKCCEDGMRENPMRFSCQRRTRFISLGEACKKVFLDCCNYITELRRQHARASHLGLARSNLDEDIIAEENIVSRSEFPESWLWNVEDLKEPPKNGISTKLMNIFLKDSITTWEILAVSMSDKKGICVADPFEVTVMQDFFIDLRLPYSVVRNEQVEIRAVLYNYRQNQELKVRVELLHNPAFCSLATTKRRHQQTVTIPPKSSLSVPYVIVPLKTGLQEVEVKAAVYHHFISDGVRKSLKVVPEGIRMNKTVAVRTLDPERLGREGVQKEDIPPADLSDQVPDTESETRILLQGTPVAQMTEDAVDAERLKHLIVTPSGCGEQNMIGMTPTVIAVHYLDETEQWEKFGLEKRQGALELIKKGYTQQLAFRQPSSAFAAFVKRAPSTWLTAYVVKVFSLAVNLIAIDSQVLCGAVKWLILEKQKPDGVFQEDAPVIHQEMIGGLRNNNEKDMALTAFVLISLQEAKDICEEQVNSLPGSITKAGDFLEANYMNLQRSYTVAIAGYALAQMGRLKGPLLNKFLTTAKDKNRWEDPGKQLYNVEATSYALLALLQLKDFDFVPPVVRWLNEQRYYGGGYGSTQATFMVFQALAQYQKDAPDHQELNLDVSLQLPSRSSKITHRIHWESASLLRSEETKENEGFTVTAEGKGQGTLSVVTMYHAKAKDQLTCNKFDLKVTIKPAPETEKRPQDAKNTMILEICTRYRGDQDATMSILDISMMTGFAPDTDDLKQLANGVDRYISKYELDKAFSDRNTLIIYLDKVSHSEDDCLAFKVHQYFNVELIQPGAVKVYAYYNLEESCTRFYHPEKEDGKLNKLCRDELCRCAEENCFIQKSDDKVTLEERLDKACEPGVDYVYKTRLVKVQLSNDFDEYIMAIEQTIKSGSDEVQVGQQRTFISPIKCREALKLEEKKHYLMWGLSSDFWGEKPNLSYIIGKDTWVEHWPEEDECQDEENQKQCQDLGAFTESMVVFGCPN
Chain of C3 convertase complex (P00751 260-764, chain 2 of 2): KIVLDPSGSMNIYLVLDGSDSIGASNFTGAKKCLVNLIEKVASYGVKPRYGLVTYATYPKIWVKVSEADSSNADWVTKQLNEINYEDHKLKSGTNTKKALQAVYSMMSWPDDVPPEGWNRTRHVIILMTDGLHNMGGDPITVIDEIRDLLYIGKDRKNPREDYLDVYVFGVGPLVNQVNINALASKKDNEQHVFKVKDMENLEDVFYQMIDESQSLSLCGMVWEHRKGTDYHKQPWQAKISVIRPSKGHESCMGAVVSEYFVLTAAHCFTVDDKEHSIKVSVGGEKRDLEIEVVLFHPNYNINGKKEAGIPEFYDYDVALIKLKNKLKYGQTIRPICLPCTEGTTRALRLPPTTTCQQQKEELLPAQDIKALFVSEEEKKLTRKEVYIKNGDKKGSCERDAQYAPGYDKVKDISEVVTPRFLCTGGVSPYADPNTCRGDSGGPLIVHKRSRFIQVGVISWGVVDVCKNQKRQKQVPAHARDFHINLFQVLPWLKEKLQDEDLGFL
Turning to B1, the “C3 convertase activity % of the control” value was 30 % of the control and the “C3 convertase activity IC50” value is 0.402 µg/mL.

Take B2: the “C3 convertase activity % of the control” value is 42 % of the control and the “C3 convertase activity IC50” value stood at 0.228 µg/mL.

As for B3, the “C3 convertase activity % of the control” value is 38 % of the control and the “C3 convertase activity IC50” value came to 0.244 µg/mL.

As to B4, the “C3 convertase activity % of the control” value was 45 % of the control and the “C3 convertase activity IC50” value was 0.776 µg/mL.

For B5, the “C3 convertase activity % of the control” value is 30 % of the control and the “C3 convertase activity IC50” value worked out at 0.307 µg/mL.
